Measured values taken from article PMC6826516.
Each block holds one binder with its values, some of them ahead of it.

Experiments:
[1] = target: T1, LgBiT-TEAD1-Myc (TEAD1 aa 194-411), mutant, P28347-1; test: NanoBiT assay (split-luciferase biosensor) in lysates of transfected HEK293T cells; conditions: chain shown with the change; 48 h after transfection; equal amounts of each biosensor plasmid; parent: est. 1300; read off a plot
T1 chain: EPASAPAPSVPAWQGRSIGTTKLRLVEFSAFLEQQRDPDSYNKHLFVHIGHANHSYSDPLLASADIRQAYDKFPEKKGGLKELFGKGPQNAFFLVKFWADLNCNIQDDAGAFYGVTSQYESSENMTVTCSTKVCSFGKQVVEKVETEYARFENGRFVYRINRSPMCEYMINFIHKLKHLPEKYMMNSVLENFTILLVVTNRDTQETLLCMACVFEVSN

[2] = target: T2, LgBiT-TEAD-His fusion protein (TEAD1 aa 194-411), mutant, P28347-1; test: NanoBiT assay (split-luciferase biosensor) with purified His-tagged fusion proteins in vitro; conditions: chain shown with the change; 100 ng of each construct; mixed and incubated for 5 min before substrate; parent: est. 59; read off a plot
T2 chain: T1 chain

response (fold over LgBiT-TEAD1 alone) [1]: 19
B1: m5; m2 TAZ:W43A; TAZ:K46A; TAZ:L48A; TAZ:S51A; TAZ:F52A; TAZ:F53A; TEAD1:E255A; TEAD1:V257A; TEAD1:I262A (protein)
chain: PGQQVIHVTQDLDTDLEALFNSVMNPKPSSARKAIAPEAAAKEPDSGSHSRQSSTDSSGGHPGPRLAGGAQHVRSHSSPASLQLGTGAGAAGSPAQQHAHLRQQSYD

response (fold over LgBiT-TEAD1 alone) [2]: 12
B2: m17; m14 TAZ:W43A; TAZ:K46A; TAZ:L48A; TAZ:S51A; TAZ:F52A; TAZ:F53A; TEAD1:E255A; TEAD1:V257A; TEAD1:I262A (protein)
chain: B1 chain
